Assay in all cases: SEC
For test [1], the target named is ΔNp63α R279H in the V603D background.
Another test addresses ΔNp63α R304Q/V603D.
For the next test, the target named is ΔNp63α V603D.

“ΔNp63α R279H in the V603D background (natural protein)”: the stoichiometry N in test [1] was determined as 4. On to ΔNp63α R304Q/V603D (natural protein), for which the stoichiometry N with ΔNp63α R304Q/V603D came out at 4.

As for ΔNp63α V603D (natural protein), the stoichiometry N in the test with ΔNp63α V603D was 4.

What is called stoichiometry N is a count of units in the complex or per binding partner.
